# Results: article PMC2670979
# B1: GST-Miro1 WT [not stated] / KIF5C [modified: 35S-methionine label; 35S-methionine label] [not stated] (parent)
# chain 1: MKKDVRILLVGEPRVGKTSLIMSLVSEEFPEEVPPRAEEITIPADVTPERVPTHIVDYSEAEQSDEQLHQEISQANVICIVYAVNNKHSIDKVTSRWIPLINERTDKDSRLPLILVGNKSDLVEYSSMETILPIMNQYTEIETCVECSAKNLKNISELFYYAQKAVLHPTGPLYCPEEKEMKPACIKALTRIFKISDQDNDGTLNDAELNFFQRICFNTPLAPQALEDVKNVVRKHISDGVADSGLTLKGFLFLHTLFIQRGRHETTWTVLRRFGYDDDLDLTPEYLFPLLKIPPDCTTELNHHAYLFLQSTFDKHDLDRDCALSPDELKDLFKVFPYIPWGPDVNNTVCTNERGWITYQGFLSQWTLTTYLDVQRCLEYLGYLGYSILTEQESQASAVTVTRDKKIDLQKKQTQRNVFRCNVIGVKNCGKSGVLQALLGRNLMRQKKIREDHKSYYAINTVYVYGQEKYLLLHDISESEFLTEAEIICDVVCLVYDVSNPKSFEYCARIFKQHFMDSRIPCLIVAAKSDLHEVKQEYSISPTDFCRKHKMPPPQAFTCNTADAPSKDIFVKLTTMAMYPHVTQADLKSSTFWLRASFGATVFAVLGFAMYKALLKQR
# chain 2: MADPAECSIKVMCRFRPLNEAEILRGDKFIPKFKGDETVVIGQGKPYVFDRVLPPNTTQEQVYNACAKQIVKDVLEGYNGTIFAYGQTSSGKTHTMEGKLHDPQLMGIIPRIAHDIFDHIYSMDENLEFHIKVSYFEIYLDKIRDLLDVSKTNLAVHEDKNRVPYVKGCTERFVSSPEEVMDVIDEGKANRHVAVTNMNEHSSRSHSIFLINIKQENVETEKKLSGKLYLVDLAGSEKVSKTGAEGAVLDEAKNINKSLSALGNVISALAEGTKTHVPYRDSKMTRILQDSLGGNCRTTIVICCSPSVFNEAETKSTLMFGQRAKTIKNTVSVNLELTAEEWKKKYEKEKEKNKTLKNVIQHLEMELNRWRNGEAVPEDEQISAKDQKNLEPCDNTPIIDNIAPVVAGISTEEKEKYDEEISSLYRQLDDKDDEINQQSQLAEKLKQQMLDQDELLASTRRDYEKIQEELTRLQIENEAAKDEVKEVLQALEELAVNYDQKSQEVEDKTRANEQLTDELAQKTTTLTTTQRELSQLQELSNHQKKRATEILNLLLKDLGEIGGIIGTNDVKTLADVNGVIEEEFTMARLYISKMKSEVKSLVNRSKQLESAQMDSNRKMNASERELAACQLLISQHEAKIKSLTDYMQNMEQKRRQLEESQDSLSEELAKLRAQEKMHEVSFQDKEKEHLTRLQDAEEMKKALEQQMESHREAHQKQLSRLRDEIEEKQKIIDEIRDLNQKLQLEQEKLSSDYNKLKIEDQEREMKLEKLLLLNDKREQAREDLKGLEETVSRELQTLHNLRKLFVQDLTTRVKKSVELDNDDGGGSAAQKQKISFLENNLEQLTKVHKQLVRDNADLRCELPKLEKRLRATAERVKALESALKEAKENAMRDRKRYQQEVDRIKEAVRAKNMARRAHSAQIAKPIRPGHYPASSPTAVHAIRGGGGSSSNSTHYQK
# Variants of: B1
# Experiment: GST pull-down of in vitro translated 35S-labeled protein
# Settings: with KIF5C [modified: 35S-methionine label, 2 mM Ca2+, normalized to 100 at 0 mM Ca2+, parent: 70, read off a plot
row,screen value,Variant
1,98,chain 1 E208K E328K
